The results in this text go back to patent US20170313781A1 (IMMUNOMEDICS, published 2017).

In assay [1] the target is human Trop-2 on the surface of human tumor cells (human) (UniProt P09758). Put plainly: cell binding on NCI-N87 cells, anti-mouse-HRP, luminescence.
For assay [2] the target is unchanged. Put plainly: cell binding on NCI-N87 cells, Bmax compared to RS7.
The target of assay [3] is recombinant human neonatal receptor (FcRn) (human) (UniProt P55899). Put plainly: SPR (BIACORE), low-density FcRn chip, three runs, 400 to 25 nM. In general terms: In SPR one partner is held on a chip, and binding of the other changes the refractive index at the surface.
Sequence of recombinant human neonatal receptor (FcRn) (human) (P55899 24-297 limits assumed, chain 1 of 2): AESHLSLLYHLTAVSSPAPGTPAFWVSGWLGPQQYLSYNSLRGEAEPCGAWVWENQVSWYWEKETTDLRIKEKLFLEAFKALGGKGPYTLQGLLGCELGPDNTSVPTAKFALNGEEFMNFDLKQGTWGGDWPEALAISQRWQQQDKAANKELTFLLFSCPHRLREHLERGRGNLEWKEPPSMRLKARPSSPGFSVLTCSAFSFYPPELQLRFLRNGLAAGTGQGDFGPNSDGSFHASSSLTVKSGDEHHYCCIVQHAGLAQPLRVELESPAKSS
Sequence of recombinant human neonatal receptor (FcRn) (human) (P61769 21-119 limits assumed, chain 2 of 2, further chain): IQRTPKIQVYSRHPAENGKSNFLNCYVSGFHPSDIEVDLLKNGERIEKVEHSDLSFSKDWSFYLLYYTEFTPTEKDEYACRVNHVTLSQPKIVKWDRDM
In assay [4] the target is rhTrop-2/TACSTD2 (Sino Biological, Inc.) immobilized on a CM5 sensor chip (human) (UniProt P09758). The assay can be described thus: SPR (BIACORE), low-density recombinant human Trop-2 chip, three runs.
In assay [5] the target is human Trop-2 on the surface of human tumor cells (human) (UniProt P09758). Put plainly: cell-based or functional assay.
Assay [6] has as its target rhTrop-2/TACSTD2 (Sino Biological, Inc.) immobilized on a CM5 sensor chip (human) (UniProt P09758). The assay can be described thus: SPR (BIACORE), Trop-2 chip.
Assay [7] has as its target human Trop-2 on the surface of human tumor cells (human) (UniProt P09758). Put plainly: cell binding assay.
The target in assay [8] is recombinant human neonatal receptor (FcRn) (human) (UniProt P55899). The assay can be described thus: SPR (BIACORE), FcRn chip.
The target in assay [9] is T1, human Trop-2 on the surface of human tumor cells (human, UniProt P09758 27-323).
T1 construct: whole, on cells; also called EGP-1; TACSTD2
T1 sequence (looked up): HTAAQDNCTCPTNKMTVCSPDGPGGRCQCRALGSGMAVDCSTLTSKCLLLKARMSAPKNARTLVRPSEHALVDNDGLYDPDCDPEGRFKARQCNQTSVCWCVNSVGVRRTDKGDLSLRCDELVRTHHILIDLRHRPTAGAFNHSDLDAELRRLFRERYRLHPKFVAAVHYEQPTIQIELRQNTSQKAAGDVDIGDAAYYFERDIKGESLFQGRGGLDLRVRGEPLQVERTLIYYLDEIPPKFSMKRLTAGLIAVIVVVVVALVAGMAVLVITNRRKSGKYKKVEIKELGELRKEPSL
Put plainly: cell binding on NCI-N87 cells, anti-mouse-HRP, luminescence.

In assay [10] the target is human Trop-2 on the surface of human tumor cells (human) (UniProt P09758). Put plainly: cell-based or functional assay. This is another data set of the same source.
Assay [11] concerns the target recombinant human Trop-2 with a His-tag (Sino Biological, Cat#10428-H09H) (human) (UniProt P09758). The assay can be described thus: ELISA on Ni-NTA strips coated with recombinant His-tagged human Trop-2. On the technique in general: ELISA stands for enzyme-linked immunosorbent assay.

Like-named read-outs stand apart in the source and are kept apart here.

As for “162-46.2 murine monoclonal antibody against human Trop-2”, in assay [1], the equilibrium dissociation constant (Kd) (commonly the free concentration of one partner at which half of the binding sites on the other are occupied at equilibrium, for simple one-to-one binding) worked out at 520 pM and the maximum binding (Bmax) (relative luminescent units) is 8470. In assay [2], this molecule came in with a reduction of Bmax against RS7 of 25%.
On the same counts, the results for “MAB650 murine monoclonal antibody against human Trop-2 (R&D Systems)” are 490 pM, 6020 and 50%.
Regarding “sacituzumab govitecan (IMMU-132, hRS7-CL2A-SN-38) (antibody)”, the Kd in [3] was 192000 pM. Besides, the Kd in assay [4] came to 260 pM. In assay [5], the ADCC, percent specific lysis of MDA-MB-468 cells (LDH release, E:T 50:1, 33.3 nM) was determined as 8.6%; the median fluorescence intensity of anti-rH2AX-AF488 staining (dsDNA breaks), HCC1806 (Trop-2+) cells is 546 MFI; the γH2AX induction in BxPC-3 cells, Mean Fluorescence Intensity was determined as 5350 MFI; the γH2AX induction in BxPC-3 cells, Percent Positive is 69%. The same molecule returned a fold improvement of KD against naked hRS7 in assay [6] of 2 fold. This molecule also gave a dissociation constant Kd in [7] of 1200 pM. Also, in [8], the fold decrease in fold change of average binding level (reference not named; the comparison in paragraph 543 is with hRS7) worked out at 2 fold.

B1: murine RS7 anti-Trop-2 monoclonal antibody (antibody, V domains shown)
VH: VKLQESGPELKKPGETVKISCKASGYTFTNYGMNWVKQAPGKGLKWMGWINTYTGEPTYTDDFKGRFAFSLETSATTAYLQINNLKSEDMATYFCARGGFGSSYWYFDVWGQGTTVTVSS
VL: DIQLTQSHKFMSTSVGDRVSITCKASQDVSIAVAWYQQKPGQSPKLLIYSASYRYTGVPDRFTGSGSGTDFTFTISSVQAEDLAVYYCQQHYITPLTFGAGTKLELK
B1: in assay [9], the Kd is 570 pM.

B2: humanized RS7 (hRS7) anti-Trop-2 IgG (antibody, INN chains, looked up, V domains shown)
VH: QVQLQQSGSELKKPGASVKVSCKASGYTFTNYGMNWVKQAPGQGLKWMGWINTYTGEPTYTDDFKGRFAFSLDTSVSTAYLQISSLKADDTAVYFCARGGFGSSYWYFDVWGQGSLVTVSS
VL: DIQLTQSPSSLSASVGDRVSITCKASQDVSIAVAWYQQKPGKAPKLLIYSASYRYTGVPDRFSGSGSGTDFTLTISSLQPEDFAVYYCQQHYITPLTFGAGTKVEIK
For the molecule B2, the ADCC, percent specific lysis of BxPC-3 cells (PBMC effectors, E:T 100:1, 33.3 nM) in [10] turned out to be 8.5%. Moreover, in [10], the ADCC, percent specific lysis of MDA-MB-468 cells (LDH release, E:T 50:1, 33.3 nM) is 29.8%. For the same molecule, the dissociation constant (Kd) in [3] turned out to be 92400 pM; in assay [4], 510 pM; in assay [11], 300 pM.

B3: hRS7-CL2-SN-38 (antibody, INN chains, looked up, V domains shown)
VH: QVQLQQSGSELKKPGASVKVSCKASGYTFTNYGMNWVKQAPGQGLKWMGWINTYTGEPTYTDDFKGRFAFSLDTSVSTAYLQISSLKADDTAVYFCARGGFGSSYWYFDVWGQGSLVTVSS
VL: DIQLTQSPSSLSASVGDRVSITCKASQDVSIAVAWYQQKPGKAPKLLIYSASYRYTGVPDRFSGSGSGTDFTLTISSLQPEDFAVYYCQQHYITPLTFGAGTKVEIK
modifications: SN-38 via CL2 linker
B3 registered a Kd in assay [7] of 1200 pM.
